Where a chain is given by its changes, count along the chain named.
Legend:
Experiment in all cases: cell-based or functional assay
[1] = biological target: T1, human BCMA on the cell surface (human, UniProt Q02223 1-184)
T1 sequence (looked up): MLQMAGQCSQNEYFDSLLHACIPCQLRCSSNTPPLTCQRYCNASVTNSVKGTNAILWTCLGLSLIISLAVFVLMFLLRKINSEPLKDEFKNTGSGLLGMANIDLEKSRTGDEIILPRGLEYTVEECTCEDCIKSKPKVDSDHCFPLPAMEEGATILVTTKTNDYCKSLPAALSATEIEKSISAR

[2] = biological target: T1, human BCMA on the cell surface; remark: listed apart in the source
[3] = biological target: T1, human BCMA on the cell surface; remark: listed apart in the source
[4] = biological target: T1, human BCMA on the cell surface; remark: listed apart in the source
[5] = biological target: T1, human BCMA on the cell surface; remark: listed apart in the source
[6] = biological target: T1, human BCMA on the cell surface; remark: listed apart in the source

B1: 42-TCBcv (bispecific antibody, human IgG1, kappa, L234A L235A)
heavy 1: not shown
heavy 2: EVQLLESGGGLVQPGGSLRLSCAASGFTFSDNAMGWVRQAPGKGLEWVSAISGPGSSTYYADSVKGRFTISRDNSKNTLYLQMNSLRAEDTAVYYCAKVLGWFDYWGQGTLVTVSSASTKGPSVFPLAPSSKSTSGGTAALGCLVEDYFPEPVTVSWNSGALTSGVHTFPAVLQSSGLYSLSSVVTVPSSSLGTQTYICNVNHKPSNTKVDEKVEPKSCDKTHTCPPCPAPEAAGGPSVFLFPPKPKDTLMISRTPEVTCVVVDVSHEDPEVKFNWYVDGVEVHNAKTKPREEQYNSTYRVVSVLTVLHQDWLNGKEYKCKVSNKALGAPIEKTISKAKGQPREPQVCTLPPSRDELTKNQVSLSCAVKGFYPSDIAVEWESNGQPENNYKTTPPVLDSDGSFFLVSKLTVDKSRWQQGNVFSCSVMHEALHNHYTQKSLSLSPGK
light 1: EIVLTQSPGTLSLSPGERATLSCRASQSVSDEYLSWYQQKPGQAPRLLIHSASTRATGIPDRFSGSGSGTDFTLAISRLEPEDFAVYYCQQYGYPPDFTFGQGTKVEIKRTVAAPSVFIFPPSDRKLKSGTASVVCLLNNFYPREAKVQWKVDNALQSGNSQESVTEQDSKDSTYSLSSTLTLSKADYEKHKVYACEVTHQGLSSPVTKSFNRGEC
light 2: EVQLLESGGGLVQPGGSLRLSCAASGFTFSTYAMNWVRQAPGKGLEWVSRIRSKYNNYATYYADSVKGRFTISRDDSKNTLYLQMNSLRAEDTAVYYCVRHGNFGNSYVSWFAYWGQGTLVTVSSASVAAPSVFIFPPSDEQLKSGTASVVCLLNNFYPREAKVQWKVDNALQSGNSQESVTEQDSKDSTYSLSSTLTLSKADYEKHKVYACEVTHQGLSSPVTKSFNRGEC
For B1, the “EC50 redirected T-cell killing of H929 cells (LDH release), Donor 1” value [1] was 0.0097 nM, the “EC50 redirected T-cell killing of H929 cells (LDH release), Donor 3” value [1] was 0.0117 nM and the “EC50 redirected T-cell killing of H929 cells (LDH release), Donor 4” value [1] was 0.0072 nM. For the same binder, the “EC50 redirected T-cell killing of H929 cells (LDH release), Donor 5” value [1] was 0.0068 nM, the “EC50 redirected T-cell killing of L363 cells (LDH release), Donor 1” value [2] was 0.0155 nM and the “EC50 redirected T-cell killing of L363 cells (LDH release), Donor 2” value [2] was 0.0167 nM. For the same binder, the “EC50 redirected T-cell killing of L363 cells (LDH release), Donor 3” value [2] was 0.0052 nM, the “EC50 redirected T-cell killing of L363 cells (LDH release), Donor 4” value [2] was 0.0022 nM and the “EC50 redirected T-cell killing of L363 cells (LDH release), Donor 5” value [2] was 0.0106 nM. For the same binder, the “EC50 redirected T-cell killing of RPMI-8226 cells (LDH release), Donor 2” value [3] was 0.383 nM, the “EC50 redirected T-cell killing of RPMI-8226 cells (LDH release), Donor 3” value [3] was 0.0187 nM and the “EC50 redirected T-cell killing of RPMI-8226 cells (LDH release), Donor 4” value [3] was 0.0035 nM. For the same binder, the “EC50 redirected T-cell killing of RPMI-8226 cells (LDH release), Donor 5” value [3] was 0.0015 nM, the “Annexin-V positive JJN-3 cells (%) at 0.1 pM, Experiment 2” value [4] was 12.8% and the “Annexin-V positive JJN-3 cells (%) at 1 pM, Experiment 1” value [4] was 11.9%. For the same binder, the “Annexin-V positive JJN-3 cells (%) at 1 pM, Experiment 2” value [4] was 13.5%, the “Annexin-V positive JJN-3 cells (%) at 10 pM, Experiment 1” value [4] was 12.3% and the “Annexin-V positive JJN-3 cells (%) at 10 pM, Experiment 2” value [4] was 13.6%. For the same binder, the “Annexin-V positive JJN-3 cells (%) at 100 pM, Experiment 1” value [4] was 8.62%, the “Annexin-V positive JJN-3 cells (%) at 100 pM, Experiment 2” value [4] was 14.4% and the “Annexin-V positive JJN-3 cells (%) at 1000 pM, Experiment 1” value [4] was 16.8%. The “Annexin-V positive JJN-3 cells (%) at 1000 pM, Experiment 2” value [4] was 21.7%, the “Annexin-V positive JJN-3 cells (%) at 10000 pM, Experiment 1” value [4] was 24.8% and the “Annexin-V positive JJN-3 cells (%) at 10000 pM, Experiment 2” value [4] was 26.9%. The “Lysis of JJN-3 cells (%) at 0.1 pM, Experiment 2” value [5] was 17.6%, the “Lysis of JJN-3 cells (%) at 1 pM, Experiment 1” value [5] was 40.3% and the “Lysis of JJN-3 cells (%) at 1 pM, Experiment 2” value [5] was 34.9%. The “Lysis of JJN-3 cells (%) at 10 pM, Experiment 1” value [5] was 39%, the “Lysis of JJN-3 cells (%) at 10 pM, Experiment 2” value [5] was 39.4% and the “Lysis of JJN-3 cells (%) at 100 pM, Experiment 1” value [5] was 41.9%. The “Lysis of JJN-3 cells (%) at 100 pM, Experiment 2” value [5] was 55.3%, the “Lysis of JJN-3 cells (%) at 1000 pM, Experiment 1” value [5] was 84% and the “Lysis of JJN-3 cells (%) at 1000 pM, Experiment 2” value [5] was 81.1%. For the same binder, the “Lysis of JJN-3 cells (%) at 10000 pM, Experiment 1” value [5] was 92.9%, the “Lysis of JJN-3 cells (%) at 10000 pM, Experiment 2” value [5] was 90.4% and the “Annexin-V positive patient bone marrow myeloma plasma cells (%) at 10 pM” value [6] was 19.6%. The “Annexin-V positive patient bone marrow myeloma plasma cells (%) at 100 pM” value [6] was 10.5%, the “Annexin-V positive patient bone marrow myeloma plasma cells (%) at 1000 pM” value [6] was 30% and the “Annexin-V positive patient bone marrow myeloma plasma cells (%) at 10000 pM” value [6] was 39.9%. The “Annexin-V positive patient bone marrow myeloma plasma cells (%) at 30000 pM” value [6] was 52.5%.

B2: 22-TCBcv (bispecific antibody, human IgG1, kappa, L234A L235A)
heavy 1: not shown
heavy 2: B1 heavy 2
light 1: B1 light 1 with D31S, E32Y, S35A, H50S, S51G, S53G, T54S, A75T
light 2: B1 light 2
With B2 the “EC50 redirected T-cell killing of H929 cells (LDH release), Donor 1” value [1] was 0.0532 nM, the “EC50 redirected T-cell killing of H929 cells (LDH release), Donor 3” value [1] was 0.0422 nM and the “EC50 redirected T-cell killing of H929 cells (LDH release), Donor 4” value [1] was 0.0232 nM. For the same binder, the “EC50 redirected T-cell killing of H929 cells (LDH release), Donor 5” value [1] was 0.0289 nM, the “EC50 redirected T-cell killing of L363 cells (LDH release), Donor 1” value [2] was 0.0975 nM and the “EC50 redirected T-cell killing of L363 cells (LDH release), Donor 2” value [2] was 0.0277 nM. The “EC50 redirected T-cell killing of L363 cells (LDH release), Donor 3” value [2] was 0.0165 nM, the “EC50 redirected T-cell killing of L363 cells (LDH release), Donor 4” value [2] was 0.0146 nM and the “EC50 redirected T-cell killing of L363 cells (LDH release), Donor 5” value [2] was 0.056 nM. The “EC50 redirected T-cell killing of RPMI-8226 cells (LDH release), Donor 2” value [3] was 0.0476 nM, the “EC50 redirected T-cell killing of RPMI-8226 cells (LDH release), Donor 3” value [3] was 0.0076 nM and the “EC50 redirected T-cell killing of RPMI-8226 cells (LDH release), Donor 4” value [3] was 0.0032 nM. The “EC50 redirected T-cell killing of RPMI-8226 cells (LDH release), Donor 5” value [3] was 0.0055 nM, the “Annexin-V positive JJN-3 cells (%) at 0.1 pM, Experiment 2” value [4] was 14.8% and the “Annexin-V positive JJN-3 cells (%) at 1 pM, Experiment 1” value [4] was 9.3%. The “Annexin-V positive JJN-3 cells (%) at 1 pM, Experiment 2” value [4] was 15%, the “Annexin-V positive JJN-3 cells (%) at 10 pM, Experiment 1” value [4] was 13.3% and the “Annexin-V positive JJN-3 cells (%) at 10 pM, Experiment 2” value [4] was 15.9%. The “Annexin-V positive JJN-3 cells (%) at 100 pM, Experiment 1” value [4] was 12.5%, the “Annexin-V positive JJN-3 cells (%) at 100 pM, Experiment 2” value [4] was 18.4% and the “Annexin-V positive JJN-3 cells (%) at 1000 pM, Experiment 1” value [4] was 26.1%. For the same binder, the “Annexin-V positive JJN-3 cells (%) at 1000 pM, Experiment 2” value [4] was 27%, the “Annexin-V positive JJN-3 cells (%) at 10000 pM, Experiment 1” value [4] was 22.9% and the “Annexin-V positive JJN-3 cells (%) at 10000 pM, Experiment 2” value [4] was 29.7%. For the same binder, the “Lysis of JJN-3 cells (%) at 0.1 pM, Experiment 2” value [5] was 36.5%, the “Lysis of JJN-3 cells (%) at 1 pM, Experiment 1” value [5] was 4.29% and the “Lysis of JJN-3 cells (%) at 1 pM, Experiment 2” value [5] was 24.4%. For the same binder, the “Lysis of JJN-3 cells (%) at 10 pM, Experiment 1” value [5] was 73.6%, the “Lysis of JJN-3 cells (%) at 10 pM, Experiment 2” value [5] was 41.7% and the “Lysis of JJN-3 cells (%) at 100 pM, Experiment 1” value [5] was 56.3%. The “Lysis of JJN-3 cells (%) at 100 pM, Experiment 2” value [5] was 53%, the “Lysis of JJN-3 cells (%) at 1000 pM, Experiment 1” value [5] was 90.5% and the “Lysis of JJN-3 cells (%) at 1000 pM, Experiment 2” value [5] was 94.1%. For the same binder, the “Lysis of JJN-3 cells (%) at 10000 pM, Experiment 1” value [5] was 88%, the “Lysis of JJN-3 cells (%) at 10000 pM, Experiment 2” value [5] was 91.2% and the “Annexin-V positive patient bone marrow myeloma plasma cells (%) at 10 pM” value [6] was 14.2%. For the same binder, the “Annexin-V positive patient bone marrow myeloma plasma cells (%) at 100 pM” value [6] was 14.8%, the “Annexin-V positive patient bone marrow myeloma plasma cells (%) at 1000 pM” value [6] was 31% and the “Annexin-V positive patient bone marrow myeloma plasma cells (%) at 10000 pM” value [6] was 51.7%. The “Annexin-V positive patient bone marrow myeloma plasma cells (%) at 30000 pM” value [6] was 55.7%.

Reference: US20230322957A1 (ENGMAB SARL, published 2023)
